These results are taken from patent US20030166232A1 (LUDWIG INSTITUTE FOR CANCER RESEARCH, published 2003).

B2: PARG (PTPL1 Associated RhoGAP), the 150 kDa component from PC-3 cell lysate (other)
chain: MIAHKQKKTKKKRAWASGQLSTDITTSEMGLKSLSSNSIFDPDYIKELVNDIRKFSHILLYLKEAIFSDCFKEVIHIRLEELLRVLKSIMNKHQNLNSVDLQNAAEMLTAKVKAVNFTEVNEENKNDLFQEVFSSIETLAFTFGNILTNFLMGDVGNDSFLRLPVSRETKSFENVSVESVDSSSEKGNFSPLELDNVLLKNTDSIELALSYAKTWSKYTKNIVSWVEKKLNLELESTRNMVKLAEATRTNIGIQEFMPLQSLFTNALLNDIESSHLLQQTIAALQANKFVQPLLGRKNEMEKQRKEIKELWKQEQNKMLEAENALKKAKLLCMQRQDEYEKAKSSMFRAEEEHLSSSGGLAKNLNKQLEKKRRLEEEALQKVEEADELYKVCVTNVEERRNDVENTKREILAQLRTLVFQCDLTLKAVTVNLFHMQHLQAASLADRLQSLCGSAKLYDPGQEYSEFVKATNSTEEEKVDGNVNKHLNSSQPSGFGPANSLEDVVRLPDSSNKIEEDRCSNSADITGPSFIRSWTFGMFSDSESTGGSSESRSLDSESISPGDFHRKLPRTPSSGTMSSADDLDEREPPSPSETGPNSLGTFKKTLMSKAALTHKFRKLRSPTKCRDCEGIVVFQGVECEECLLVCHRKCLENLVIICGHQKLPGKIHLFGAEFTLVAKKEPDGIPFILKICASEIENRALCLQGIYRVCGNKIKTEKLCLALENGMHLVDISEFSSHDICDVLKLYLRQLPEPFILFRLYKEFIDLAKEIQHVNEEQETKKNSLEDKKWPNMCIEINRILLKSKDLLRQLPASNFNSLHFLIVHLKRVVDHAEENKMNSKNLGVIFGPSLIRPRPQTAPITISSLAEYSNQARLVEFLITYSQKIFDGSLQPQDVMCSIGVVDQGCFPKPLLSPEERDIERSMKSLFFSSKEDIHTSESESKIFERATSFEESERKQNALGKCDACLSDKAQLLLDQEAESASQKIEDGKAPKPLSLKSDRSTNNVERHTPRTKIRPVSLPVDRLLLASPPNERNGRNMGNVNLDKFCKNPAFEGVNRKDAATTVCSKFNGFDQQTLQKIQDKQYEQNSLTAKTTMIMPSALQEKGVTTSLQISGDHSINATQPSKPYAEPVRSVREASERRSSDSYPLAPVRAPRTLQPQHWTTFYKPHAPIISIRGNEEKPASPSAACPPGTDHDPHGLVVKSMPDPDKASACPGQATGQPKEDSEELGLPDVNPMCQRPRLKRMQQFEDLEDEIPQFV
notes: In the pull-down it was the endogenous, 35S-labelled 150 kDa protein in PC-3 cell lysate; also called 150 kDa protein

What all share (experiment): GST pull-down from 35S-labelled PC-3 cell lysate, SDS-gel, fluorography
The target of experiment [1] is B2. How it is done:
(§1) PC-3 cells were obtained from American Type Culture Collection (Rockville, Md.) and cultured as described (Saras et al., 1994). Metabolic labeling of PC-3 cells was performed for 4 h in methionine-and cysteine-free MCDB 104 medium (Gibco/Life Technologies, Gaithersburg, Md.) with […] of ³⁵S-methionine and ³⁵S-cysteine (in vivo labeling mix; Amersham, Arlington Heights, Ill.). After labeling, the cells were solubilized in buffer containing 20 mM Tris-HCI, pH 7.4,150 mM NaCl, 10 mM EDTA, 0.5% Triton X-100, 0.5% deoxycholate, 1 mM dithiothreitol, 1.5% Trasylol (Bayer, Germany) and 1 mM phenylmethylsulfonyl fluoride (Sigma, St. Louis, Mo.). After 15 min on ice, cell debris was removed by centrifugation. Samples (1 ml) were then incubated for 1.5 h at 4° C. with 10 μg of GST-PDZ fusion proteins bound to glutathione-Sepharose 4B beads (Pharmacia). The beads were pelleted and washed four times with solubilization buffer. The protein complexes were eluted by boiling for 5 min in SDS-sample buffer (100 mM Tris-HCI, pH 8.8, 0.01% bromophenol blue, 36% glycerol, 4% SDS, 10 mM dithiothreitol) and analyzed by SDS-gel electrophoresis using 5-12% polyacrylamide gels (Blobel and Dobberstein, J. Cell Biol. 67:835-851, 1975). The gel was fixed, incubated with Amplify (Amersham) for 20 min, dried and subjected to fluorography.

Experiment [2] deals with T1, GST-PDZ 2-3 (glutathione S-transferase fused to PTPL1 residues 1340-1579) (Homo sapiens (Human), UniProt Q12923 1359-1598).
T1 construct: not shown: glutathione S-transferase (GST) encoded by the expression vector pGEX1 lambda T (Pharmacia)
T1 sequence: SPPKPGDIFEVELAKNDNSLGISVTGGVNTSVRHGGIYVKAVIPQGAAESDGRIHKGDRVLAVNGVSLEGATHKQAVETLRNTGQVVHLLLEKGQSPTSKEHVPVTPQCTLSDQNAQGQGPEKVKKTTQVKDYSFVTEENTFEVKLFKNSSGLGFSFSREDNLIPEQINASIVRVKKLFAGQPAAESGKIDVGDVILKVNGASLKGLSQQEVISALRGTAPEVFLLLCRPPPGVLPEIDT
How it is done: as §1

Experiment [3] deals with T2, GST-PDZ 5 (glutathione S-transferase fused to PTPL1 residues 1856-1960) (Homo sapiens (Human), UniProt Q12923 1875-1979).
T2 construct: not shown: glutathione S-transferase (GST) encoded by the expression vector pGEX1 lambda T (Pharmacia)
T2 sequence: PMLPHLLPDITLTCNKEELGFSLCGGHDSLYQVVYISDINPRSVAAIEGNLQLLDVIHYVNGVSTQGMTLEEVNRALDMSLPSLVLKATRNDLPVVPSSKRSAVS
How it is done:
as §1

B1: GST-PDZ 3 (glutathione S-transferase fused to PTPL1 residues 1469-1579) (other)
chain: VKDYSFVTEENTFEVKLFKNSSGLGFSFSREDNLIPEQINASIVRVKKLFAGQPAAESGKIDVGDVILKVNGASLKGLSQQEVISALRGTAPEVFLLLCRPPPGVLPEIDT
notes: not shown: glutathione S-transferase (GST) encoded by the expression vector pGEX1 lambda T (Pharmacia)
With B1, in experiment [1], the binding result is listed as “no binding (tested: 10 µg of GST-PDZ fusion protein)”.

Take B2: the binding result in experiment [2] and in experiment [3] was “no binding (tested: 10 µg of GST-PDZ fusion protein)” each time.

B3: GST-PDZ 1 (glutathione S-transferase fused to PTPL1 residues 1066-1166) (other)
chain: SSPEREITLVNLKKDAKYGLGFQIIGGEKMGRLDLGIFISSVAPGGPADFHGCLKPGDRLISVNSVSLEGVSHHAAIEILQNAPEDVTLVISQPKEKISKV
notes: as for B1
Consider B3, for which the binding result in experiment [1] is recorded as “no binding (tested: 10 µg of GST-PDZ fusion protein)”.
